Test system: MS2 coat protein
Test: apparent KD of MS2 coat protein; designed switch direction (-1 OFF switch, 1 ON switch): -1; higher = weaker reporter binding
Summary of the method: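 Designed RNA switches with common flanks were made on Illumina chips by stalled E. coli RNA polymerase. Titration with SNAP-549-labelled MS2 coat protein doubled from 0.7 or 1.5 nM up to 3 µM. Apparent KD is each design's median over clusters after curve-fitting normalised fluorescence.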

[1] = Eterna round: R95, input ligand: microRNA oligo, concentration not stated
[2] = Eterna round: R95, input ligand: FMN 200 uM
[3] = Eterna round: R95, input ligand: none
[4] = input ligand: microRNA oligo, concentration not stated

Sequence | apparent KD of MS2 coat protein [1] [nM] | apparent KD of MS2 coat protein [2] [nM] | apparent KD of MS2 coat protein [3] [nM] | apparent KD of MS2 coat protein (input ligand: FMN 200 uM) [nM] | apparent KD of MS2 coat protein [4] [nM] | apparent KD of MS2 coat protein (input ligand: none) [nM]
GGUGCGUAUGUGAGGAUAUGCUGGUCCUUGGAUCGGCAGAAGGCACAUGAGGAUCACCCAUGUGGUGUCGUACG [salish99_Bmod_ex4_078] (puzzle: Brourd's mod of Exclusion 4) | 51.8 |  |  |  |  | 
GGUGCGUAUGUGAGGAUAUGCUGGUCCUUGGCUCGGCAGAAGGCACAUGAGGAUCACCCAUGUGGUGUCGUACC [salish99_Bmod_ex4_054] (puzzle: Brourd's mod of Exclusion 4) | 141 |  |  |  |  | 
GGUGCGUAUGUGAGGAUAUGCUGGUCCUUGGGUCAGCAGAAGGCACAUGAGGAUCACCCAUGUGGUGUCGUACC [salish99_Bmod_Ex4_026] (puzzle: Brourd's mod of Exclusion 4) | 345 | 20.3 | 344 |  |  | 
GGUGCGUUUGUGAGGAUAUGCUGGUCCUUGGUUCAGCAGAAGGCACAUGAGGAUCACCCAUGUGGUGUCGUACC [salish99_Bmod_Ex4_031] (puzzle: Brourd's mod of Exclusion 4) | 145 |  |  |  |  | 
GGUGCUGGCGCGUCGGUGUUGGUGCAAUAAGCUUGUGAAACAUGAGGAUCACCCAUGUCCUCGUGGGCUCGUCUUGU [salish99_TOv2_r2_090] (puzzle: Sensor v3, turn-off variant 2) | 12.5 | 480 | 434 |  |  | 
GGUGGACAUGAGGAUCACCCAUGUGAGGAUAUCGGCUGGCUAGCGGCGGACGGCUUCUCGAGAAGGCGCAUUGU [Exclusion 1 V83] (Eterna round: R96, puzzle: Exclusion 1) |  |  |  | 68.8 | 42.2 | 64.5
GGUGGACAUGAGGAUCACCCAUGUGAGGAUAUCGGCUGGCUAGCGGCGGACGGCUUCUCGAGAAGGCGCAUUGU [Exclusion 1 V83] (puzzle: Exclusion 1) | 46.3 |  |  |  |  | 
GGUGGACAUGAGGAUCACCCAUGUGAGGAUAUCGGCUGGUACGUGUUGGCUGGCUUCUCGAGAAGGCACAUAGU [Exclusion 1 V65] (puzzle: Exclusion 1) | 45.9 |  |  |  |  | 
GGUGGCUACGUGAGACAUGAGGAUCACCCAUGUUACCGAACGAAGGAUAUAGAAGCACAUAGCUACUAGAAGGUUGAAAAGAAA [Laeratveti] (Eterna round: R96, puzzle: Exclusion NG 3) |  |  |  | 22.6 | 24.1 | 29.9
GGUUCGAGUGUGAGGAUAUGCUGGUCCUUGGAUCAGCAGAAGGCACAUGAGGAUCACCCAUGUGGUAACGGACC [Mat - Exclusion 4 - Eli Mod - D35] (Eterna round: R97, puzzle: Brourd's mod of Exclusion 4) |  |  |  | 263 |  | 331
GGUUGGCGAGGAUAUACAUGAGGAUCACCCAUGUGAGAAUUAAAAGUGAGGAAGAAAAGUAGAAGGCGCUGACG [Mat - Exclusion 3 - Mod of Salish D4] (puzzle: Exclusion 3) | 36.1 | 304 | 384 |  |  | 
GGUUGGCGAGGAUAUACAUGAGGAUCACCCAUGUGAGAGAAUAAAGUGAGAAAGAAAAGUAGAAGGCGCUGACA [Mat - Exclusion 3 - Mod of Salish D51] (puzzle: Exclusion 3) | 46.9 | 900 | 63.9 |  |  | 
GGUUGUUGUUUCCGUUCUUACAUGAGGAUCACCCAUGUUUCUUGUCGUGCUCGCGUUGCUCGUCUGGCUGUCUGUUG [salish99_TOv1_r3_071] (puzzle: Sensor v3, turn-off variant 1) | 40.2 | 52.3 | 67.7 |  |  | 
GGUUUGGGAGGAUAUGGUUUGAAUAACAUGAGGAUCACCCAUGUAAAUAGAUCUUCCGGGCCAGAAGGCUCGGGCC [-23.9, -21.52 kcal, A 26%] (Eterna round: R97, puzzle: Exclusion 5) |  |  |  | 29.5 |  | 34.6
GGUUUUUUUUUCCUUUCUUACAUGAGGAUCACCCAUGUUUCUUGUCGUGCUCGCGUUGCUCGUCUGUCUGUCUGUUG [salish99_TOv1_r3_075(!)] (puzzle: Sensor v3, turn-off variant 1) | 41 | 49.7 | 56.2 |  |  | 
GUAAACCGGUGAGGAUAUUUAUAAUAGAGCUUUAUGAUAUACAUGAGGAUCACCCAUGUUACUUUAAAGAAGGCAUCGGAAAUG [Mat - Exclusion NG 2 - Mod of JL - D95] (Eterna round: R96, puzzle: Exclusion NG 2) |  |  |  |  | 15.5 | 
GUAAACGCAGAGGAUAUAUCAGAUCAAAGCUGCAUAGAAGGCUGCACAUGAGGAUCACCCAUGUGGUCUUCAAG [Mat - Exclusion 6 - JL Mod - D7] (Eterna round: R97, puzzle: Exclusion 6) |  |  |  | 230 |  | 31.2

Sequence | apparent KD of MS2 coat protein [1] [nM] | apparent KD of MS2 coat protein [2] [nM] | apparent KD of MS2 coat protein [3] [nM] | apparent KD of MS2 coat protein (input ligand: FMN 200 uM) [nM] | apparent KD of MS2 coat protein [4] [nM] | apparent KD of MS2 coat protein (input ligand: none) [nM]
GUAAAGGUAGGAUAUACGAAGAAAAAGGGUAGAAGAAAAACACAUGAGGAUCACCCAUGUAGAAGGACCAAAUG [Mat - Exclusion 2 - Mod of my Tesla design - D3] (puzzle: Exclusion 2) | 28.6 | 77.6 | 34 |  |  | 
GUAAAGUGAGGAUAUGGUAAAUUAAUUAUUAAUUAAUUAAUCCAGAAGGCACAUGAGGAUCACCCAUGUUAAUG [Mat - Exclusion 4 - D89] (puzzle: Exclusion 4) | 28.6 | 50.9 | 34.5 |  |  | 
GUAACAACUAGAGGAUAUCAGCACGUGUAGUGCUGAGAAGGCUAGAGUUACAUGAGGAUCACCCAUGUCUAGAGAUCAUUAAUU [ENG1/13-A3] (Eterna round: R96, puzzle: Exclusion NG 1) |  |  |  | 142 | 52.9 | 69.3
GUAAGUUCAGGAUAUGAUGAAUUAAACAUGAGGAUCACCCAUGUAGAUCCUGAAUUAACAUCAGAAGGGAAUAUUU [JL-ex5-4.53 Brourd mod] (Eterna round: R97, puzzle: Exclusion 5) |  |  |  | 22.2 |  | 15.5
GUAAUACAUGAGGAUCACCCAUGUUAGGAUAUCUGCAGGACGUCUCCCGUAUAUCCGUAGAGAAGGGACAGUGG [Eternabot (L1) Solution 20] (Eterna round: R97, puzzle: Exclusion 1) |  |  |  | 43 |  | 33.6
GUAAUGUCAGGAUAUACUAAUGAUGAAUGAUCAGACAUUAUGUAGAAGGGACAUGAGGAUCACCCAUGUAAUAU [EX4 #4] (Eterna round: R97, puzzle: Exclusion 4) |  |  |  | 49.3 |  | 28.4
GUAAUUCGAGGAUAUGCCCAUCUAAACAUGAGGAUCACCCAUGUGCGCAUGUUUACCAUCGCAGAAGGCGAGCUGC [Eternabot (L1) Solution 31] (Eterna round: R97, puzzle: Exclusion 5) |  |  |  | 39.3 |  | 25.5
GUACGCUCAGGAUAUCAAGGGCUGUACAUGAGGAUCACCCAUGUUAUCUUGGUGUCAGCGUGAGAAGGGAGGGAAA [Xesoonesa] (Eterna round: R96, puzzle: Exclusion 5) |  |  |  | 27.2 | 20.2 | 28.6
GUACGCUCAGGAUAUCAAGGGCUGUACAUGAGGAUCACCCAUGUUAUCUUGGUGUCAGCGUGAGAAGGGAGGGAAA [Xesoonesa] (puzzle: Exclusion 5) | 20.6 |  |  |  |  | 
GUACUGACAGGAUAUACAUGAGGAUCACCCAUGUGCCUUAAUGCUACAAAAGUAGCAAGUAGAAGGGUCUGUAC [Omei Ex3 Model Bachelor's Dilema v11] (Eterna round: R97, puzzle: Exclusion 3) |  |  |  | 79.7 |  | 16.5
GUAGAGACAGGAUAUACAUGAGGAUCACCCAUGUAAGGAGGAAGAGAGAGGAGAAGGAGUAGAAGGGUCAGAGG [JR_Exclu3_Sub029] (puzzle: Exclusion 3) | 35.3 | 29.2 | 35.2 |  |  | 
GUAGAGUAAGGAUAUGUAGAAUAGGAUAGAAUGGUUAGAAUACAGAAGGUACAUGAGGAUCACCCAUGUAAUGU [Excluse me!!!! 3 - Jieux - Exclusion 4] (puzzle: Exclusion 4) | 17 |  |  |  |  | 
GUAGAGUAAGGAUAUGUUGAAUAGGAUAGAAUGGUUAGAAAACAGAAGGUACAUGAGGAUCACCCAUGUAAUGU [Excluse me!!!! 11 - Jieux - Exclusion 4] (puzzle: Exclusion 4) | 19.1 | 20 | 17.6 |  |  | 
GUAGAUCGAGUUAGGAUAUGAUUAAAAUCCGGAUAUCAGAAGGAACUUGAGGAUCACCCAAGUAUAGAUGAUUU [JR_BMEx4_Sub055] (Eterna round: R97, puzzle: Brourd's mod of Exclusion 4) |  |  |  | 104 |  | 23.2
GUAUAACUACACGGGCUCAACAUGAGGAUCACCCAUGUCAUAUACGCAAGCUUUUUGCUUGUCUUAUCAGGCCGUGA [Ceatxe] (puzzle: Sensor v3, turn-off variant 1) | 16.5 | 13.5 | 12.4 |  |  | 
GUCACAUGGACAUAGGAUCACAUGAGGAUCACCCAUGUGACUAACAAGCUUUUUGUUCGUCUUAUGUCCAUGUGAAG [Stov1/15-B3] (Eterna round: R97, puzzle: Sensor, turn-off variant 1) |  |  |  | 12.4 |  | 12
GUCAGACGAGGAUAUAAACGAUAUAACAUGAGGAUCACCCAUGUACGAUCGAAUGAUCGUUUAGAAGGCGUCUGAC [E5/10-A4] (Eterna round: R97, puzzle: Exclusion 5) |  |  |  | 17.3 |  | 16.7
